Data reported in publication PMC11046786.

Target: Psilocybe mexicana IasA (indole-3-acetaldehyde synthase), C-terminally hexahistidine-tagged (Psilocybe mexicana)
Test: SEC; Superdex 200 increase 10/300 GL, native protein, 50 mM sodium phosphate, 150 mM NaCl, pH 7.2, 0.5 mL/min

- stoichiometry N: 2
Substance: Psilocybe mexicana IasA (indole-3-acetaldehyde synthase), C-terminally hexahistidine-tagged (enzyme)
